± gives the uncertainty stated by the source.

This note sets out measurements from the Human Domainome abundance scans (Beltran et al. 2025).

Sequences and labels used below:
B1: POU domain, class 4, transcription factor 2, residues 256 to 327; numbered along this chain, Q12837 (parent)
chain: RDLEAFAERFKQRRIKLGVTQADVGSALANLKIPGVGSLSQSTICRFESLTLSHNNMIALKPILQAWLEEAE

The variants in this data set derive from B1. As to the kind of experiment: abundance fitness (aPCA) (normalised: wild type 0, dead -1); higher = more abundant; growth selection in yeast, the domain comes from the species named. The following applies: Homo sapiens.
As for RDLEAFAERFKQRRIKLGVTQADVPSALANLKIPGVGSLSQSTICRFESLTLSHNNMIALKPILQAWLEEAE [G25P], the abundance fitness is -0.487 ± 0.1.

Turning to RDLEAFAERFKQRRIKLGVTQADVNSALANLKIPGVGSLSQSTICRFESLTLSHNNMIALKPILQAWLEEAE [G25N], the abundance fitness was -0.593 ± 0.26.

RDLEAFAERFKQRRIKLGVTQADVASALANLKIPGVGSLSQSTICRFESLTLSHNNMIALKPILQAWLEEAE [G25A]: the abundance fitness was -0.006 ± 0.094.

For RDLEAFAERFKQRRIKLGVTQADVRSALANLKIPGVGSLSQSTICRFESLTLSHNNMIALKPILQAWLEEAE [G25R], the abundance fitness is -0.283 ± 0.046.

For RDLEAFAERFKQRRIKLGVTQADVDSALANLKIPGVGSLSQSTICRFESLTLSHNNMIALKPILQAWLEEAE [G25D], the abundance fitness was -0.501 ± 0.26.

Take RDLEAFAERFKQRRIKLGVTQADVTSALANLKIPGVGSLSQSTICRFESLTLSHNNMIALKPILQAWLEEAE [G25T]: the abundance fitness was found to be 0.117 ± 0.097.

Take RDLEAFAERFKQRRIKLGVTQADVWSALANLKIPGVGSLSQSTICRFESLTLSHNNMIALKPILQAWLEEAE [G25W]: the abundance fitness was -0.116 ± 0.064.

Take RDLEAFAERFKQRRIKLGVTQADYGSALANLKIPGVGSLSQSTICRFESLTLSHNNMIALKPILQAWLEEAE [V24Y]: the abundance fitness is -0.975 ± 0.4.

RDLEAFAERFKQRRIKLGVTQADIGSALANLKIPGVGSLSQSTICRFESLTLSHNNMIALKPILQAWLEEAE [V24I]: the abundance fitness was -0.145 ± 0.15.

On to RDLEAFAERFKQRRIKLGVTQADKGSALANLKIPGVGSLSQSTICRFESLTLSHNNMIALKPILQAWLEEAE [V24K], for which the abundance fitness is -0.844 ± 0.21.

Consider RDLEAFAERFKQRRIKLGVTQADAGSALANLKIPGVGSLSQSTICRFESLTLSHNNMIALKPILQAWLEEAE [V24A], for which the abundance fitness was -0.067 ± 0.13.

In the case of RDLEAFAERFKQRRIKLGVTQADMGSALANLKIPGVGSLSQSTICRFESLTLSHNNMIALKPILQAWLEEAE [V24M], the abundance fitness was -0.191 ± 0.098.

Take RDLEAFAERFKQRRIKLGVTQADTGSALANLKIPGVGSLSQSTICRFESLTLSHNNMIALKPILQAWLEEAE [V24T]: the abundance fitness is -0.948 ± 0.17.

Consider RDLEAFAERFKQRRIKLGVTQADQGSALANLKIPGVGSLSQSTICRFESLTLSHNNMIALKPILQAWLEEAE [V24Q], for which the abundance fitness was -1.02 ± 0.28.

Consider RDLEAFAERFKQRRIKLGVTQADNGSALANLKIPGVGSLSQSTICRFESLTLSHNNMIALKPILQAWLEEAE [V24N], for which the abundance fitness is -0.821 ± 0.25.

With RDLEAFAERFKQRRIKLGVTQADPGSALANLKIPGVGSLSQSTICRFESLTLSHNNMIALKPILQAWLEEAE [V24P], the abundance fitness is -0.928 ± 0.24.

For RDLEAFAERFKQRRIKLGVTQADWGSALANLKIPGVGSLSQSTICRFESLTLSHNNMIALKPILQAWLEEAE [V24W], the abundance fitness is -0.781 ± 0.11.

Take RDLEAFAERFKQRRIKLGVTQADRGSALANLKIPGVGSLSQSTICRFESLTLSHNNMIALKPILQAWLEEAE [V24R]: the abundance fitness is -0.76 ± 0.09.

Turning to RDLEAFAERFKQRRIKLGVTQADGGSALANLKIPGVGSLSQSTICRFESLTLSHNNMIALKPILQAWLEEAE [V24G], the abundance fitness is -1.03 ± 0.19.

For RDLEAFAERFKQRRIKLGVTQADEGSALANLKIPGVGSLSQSTICRFESLTLSHNNMIALKPILQAWLEEAE [V24E], the abundance fitness was -0.88 ± 0.39.

As to RDLEAFAERFKQRRIKLGVTQADCGSALANLKIPGVGSLSQSTICRFESLTLSHNNMIALKPILQAWLEEAE [V24C], the abundance fitness was -0.1 ± 0.11.

As to RDLEAFAERFKQRRIKLGVTQADSGSALANLKIPGVGSLSQSTICRFESLTLSHNNMIALKPILQAWLEEAE [V24S], the abundance fitness was -0.8 ± 0.12.

Regarding RDLEAFAERFKQRRIKLGVTQADFGSALANLKIPGVGSLSQSTICRFESLTLSHNNMIALKPILQAWLEEAE [V24F], the abundance fitness was -0.642 ± 0.18.

For RDLEAFAERFKQRRIKLGVTQAVVGSALANLKIPGVGSLSQSTICRFESLTLSHNNMIALKPILQAWLEEAE [D23V], the abundance fitness is -0.403 ± 0.087.

Regarding RDLEAFAERFKQRRIKLGVTQAPVGSALANLKIPGVGSLSQSTICRFESLTLSHNNMIALKPILQAWLEEAE [D23P], the abundance fitness was -0.755 ± 0.067.

RDLEAFAERFKQRRIKLGVTQANVGSALANLKIPGVGSLSQSTICRFESLTLSHNNMIALKPILQAWLEEAE [D23N]: the abundance fitness is -0.119 ± 0.19.

Consider RDLEAFAERFKQRRIKLGVTQAKVGSALANLKIPGVGSLSQSTICRFESLTLSHNNMIALKPILQAWLEEAE [D23K], for which the abundance fitness is 0.09 ± 0.11.

Regarding RDLEAFAERFKQRRIKLGVTQACVGSALANLKIPGVGSLSQSTICRFESLTLSHNNMIALKPILQAWLEEAE [D23C], the abundance fitness was -0.678 ± 0.16.

Regarding RDLEAFAERFKQRRIKLGVTQAMVGSALANLKIPGVGSLSQSTICRFESLTLSHNNMIALKPILQAWLEEAE [D23M], the abundance fitness was -0.189 ± 0.17.

In the case of RDLEAFAERFKQRRIKLGVTQAAVGSALANLKIPGVGSLSQSTICRFESLTLSHNNMIALKPILQAWLEEAE [D23A], the abundance fitness was -0.172 ± 0.069.

In the case of RDLEAFAERFKQRRIKLGVTQAEVGSALANLKIPGVGSLSQSTICRFESLTLSHNNMIALKPILQAWLEEAE [D23E], the abundance fitness is -0.057 ± 0.16.

Take RDLEAFAERFKQRRIKLGVTQAHVGSALANLKIPGVGSLSQSTICRFESLTLSHNNMIALKPILQAWLEEAE [D23H]: the abundance fitness is -0.127 ± 0.1.

Take RDLEAFAERFKQRRIKLGVTQALVGSALANLKIPGVGSLSQSTICRFESLTLSHNNMIALKPILQAWLEEAE [D23L]: the abundance fitness is -0.252 ± 0.062.

As to RDLEAFAERFKQRRIKLGVTQAWVGSALANLKIPGVGSLSQSTICRFESLTLSHNNMIALKPILQAWLEEAE [D23W], the abundance fitness was -0.495 ± 0.085.

For RDLEAFAERFKQRRIKLGVTQASVGSALANLKIPGVGSLSQSTICRFESLTLSHNNMIALKPILQAWLEEAE [D23S], the abundance fitness was -0.068 ± 0.054.

As for RDLEAFAERFKQRRIKLGVTQAQVGSALANLKIPGVGSLSQSTICRFESLTLSHNNMIALKPILQAWLEEAE [D23Q], the abundance fitness came to 0.047 ± 0.074.

With RDLEAFAERFKQRRIKLGVTQARVGSALANLKIPGVGSLSQSTICRFESLTLSHNNMIALKPILQAWLEEAE [D23R], the abundance fitness was -0.243 ± 0.045.

Regarding RDLEAFAERFKQRRIKLGVTQAYVGSALANLKIPGVGSLSQSTICRFESLTLSHNNMIALKPILQAWLEEAE [D23Y], the abundance fitness is -0.299 ± 0.38.
